Drawing on publication PMC6648896 (Nucleic Acids Research, 2019), this text covers Kd for 1 molecule.

The assay addresses E. coli RNAP core enzyme (E. coli, UniProt P0A7Z4;P0A8V2;P0A8T7;P0A800). Kind of assay: fluorescence polarisation. A general note: Polarisation of emitted light reports the rotation of a fluorescent probe.

Chain of E. coli RNAP core enzyme (P0A7Z4 whole entry, chain 1 of 4): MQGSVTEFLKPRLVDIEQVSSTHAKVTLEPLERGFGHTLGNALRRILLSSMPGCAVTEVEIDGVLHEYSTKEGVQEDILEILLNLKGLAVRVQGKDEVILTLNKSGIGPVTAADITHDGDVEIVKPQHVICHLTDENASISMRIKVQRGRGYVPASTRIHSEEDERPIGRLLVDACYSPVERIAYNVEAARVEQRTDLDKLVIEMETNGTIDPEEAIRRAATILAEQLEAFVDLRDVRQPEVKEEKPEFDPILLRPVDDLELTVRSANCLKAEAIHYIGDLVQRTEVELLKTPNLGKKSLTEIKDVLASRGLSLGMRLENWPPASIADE
Chain of E. coli RNAP core enzyme (P0A8V2 whole entry, chain 2 of 4): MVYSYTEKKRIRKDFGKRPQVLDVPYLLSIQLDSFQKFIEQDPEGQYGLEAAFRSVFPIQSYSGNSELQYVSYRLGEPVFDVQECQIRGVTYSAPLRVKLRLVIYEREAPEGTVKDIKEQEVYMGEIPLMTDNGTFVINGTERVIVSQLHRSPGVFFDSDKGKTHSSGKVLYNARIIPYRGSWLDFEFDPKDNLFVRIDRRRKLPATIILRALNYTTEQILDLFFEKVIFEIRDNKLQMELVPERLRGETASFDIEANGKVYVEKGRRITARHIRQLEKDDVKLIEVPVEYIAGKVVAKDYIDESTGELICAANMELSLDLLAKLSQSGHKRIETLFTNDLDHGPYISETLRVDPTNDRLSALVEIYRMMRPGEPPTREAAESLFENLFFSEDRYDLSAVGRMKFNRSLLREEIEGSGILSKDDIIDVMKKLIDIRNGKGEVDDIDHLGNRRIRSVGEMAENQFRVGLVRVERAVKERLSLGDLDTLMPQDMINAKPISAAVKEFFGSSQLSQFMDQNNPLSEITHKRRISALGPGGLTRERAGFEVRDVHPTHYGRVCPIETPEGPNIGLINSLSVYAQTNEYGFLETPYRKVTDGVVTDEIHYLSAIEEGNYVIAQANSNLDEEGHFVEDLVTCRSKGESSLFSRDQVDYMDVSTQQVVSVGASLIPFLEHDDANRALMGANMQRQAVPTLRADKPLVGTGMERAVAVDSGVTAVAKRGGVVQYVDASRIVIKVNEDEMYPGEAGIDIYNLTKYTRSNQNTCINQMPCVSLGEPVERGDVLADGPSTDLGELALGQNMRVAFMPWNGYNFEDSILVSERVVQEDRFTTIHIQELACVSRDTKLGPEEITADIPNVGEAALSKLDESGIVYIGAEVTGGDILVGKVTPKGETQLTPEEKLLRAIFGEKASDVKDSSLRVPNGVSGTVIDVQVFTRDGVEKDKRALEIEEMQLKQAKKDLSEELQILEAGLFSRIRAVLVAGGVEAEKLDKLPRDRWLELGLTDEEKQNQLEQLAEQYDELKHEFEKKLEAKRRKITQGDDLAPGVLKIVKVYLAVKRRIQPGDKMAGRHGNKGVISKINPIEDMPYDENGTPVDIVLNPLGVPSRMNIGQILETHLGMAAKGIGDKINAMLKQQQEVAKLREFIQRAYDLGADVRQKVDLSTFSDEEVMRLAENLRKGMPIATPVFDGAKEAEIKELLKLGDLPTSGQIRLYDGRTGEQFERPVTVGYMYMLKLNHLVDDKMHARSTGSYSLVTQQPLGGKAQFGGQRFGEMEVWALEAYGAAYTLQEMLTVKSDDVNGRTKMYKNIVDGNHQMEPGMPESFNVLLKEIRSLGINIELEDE
Chain of E. coli RNAP core enzyme (P0A8T7 whole entry, chain 3 of 4): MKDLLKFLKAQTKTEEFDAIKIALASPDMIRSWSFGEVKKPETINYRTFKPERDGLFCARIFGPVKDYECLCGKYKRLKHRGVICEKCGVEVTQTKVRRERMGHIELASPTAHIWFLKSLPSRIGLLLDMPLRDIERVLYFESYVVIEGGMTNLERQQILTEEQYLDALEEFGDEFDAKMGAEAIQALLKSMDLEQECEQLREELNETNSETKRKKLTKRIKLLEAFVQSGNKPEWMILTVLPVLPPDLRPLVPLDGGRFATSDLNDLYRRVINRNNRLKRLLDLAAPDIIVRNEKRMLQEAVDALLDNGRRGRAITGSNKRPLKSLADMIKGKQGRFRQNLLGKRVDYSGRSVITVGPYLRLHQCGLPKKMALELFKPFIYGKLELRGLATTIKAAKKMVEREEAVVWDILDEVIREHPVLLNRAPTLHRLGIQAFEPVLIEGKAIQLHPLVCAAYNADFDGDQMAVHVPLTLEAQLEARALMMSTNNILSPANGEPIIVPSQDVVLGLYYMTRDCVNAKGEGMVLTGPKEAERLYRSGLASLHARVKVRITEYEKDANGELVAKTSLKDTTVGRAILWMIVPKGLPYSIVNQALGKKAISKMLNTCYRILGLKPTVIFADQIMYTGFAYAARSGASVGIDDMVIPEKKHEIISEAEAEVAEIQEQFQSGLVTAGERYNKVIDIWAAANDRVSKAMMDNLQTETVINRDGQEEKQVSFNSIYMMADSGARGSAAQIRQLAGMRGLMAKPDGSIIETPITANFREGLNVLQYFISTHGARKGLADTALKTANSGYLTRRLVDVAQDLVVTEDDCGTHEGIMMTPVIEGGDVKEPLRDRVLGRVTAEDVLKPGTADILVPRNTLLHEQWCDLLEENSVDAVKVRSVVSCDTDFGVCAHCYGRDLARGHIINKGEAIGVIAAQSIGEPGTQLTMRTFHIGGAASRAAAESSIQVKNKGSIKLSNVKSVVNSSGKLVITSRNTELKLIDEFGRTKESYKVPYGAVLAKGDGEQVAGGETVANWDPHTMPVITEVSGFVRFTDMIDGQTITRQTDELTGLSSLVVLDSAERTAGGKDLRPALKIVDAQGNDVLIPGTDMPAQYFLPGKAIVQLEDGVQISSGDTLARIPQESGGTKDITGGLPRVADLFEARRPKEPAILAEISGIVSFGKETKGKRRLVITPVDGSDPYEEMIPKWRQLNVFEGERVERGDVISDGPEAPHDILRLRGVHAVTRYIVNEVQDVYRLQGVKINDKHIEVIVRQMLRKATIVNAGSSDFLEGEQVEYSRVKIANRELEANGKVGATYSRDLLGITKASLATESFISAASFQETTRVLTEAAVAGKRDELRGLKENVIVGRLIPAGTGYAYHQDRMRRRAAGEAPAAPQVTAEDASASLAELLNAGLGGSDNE
Chain of E. coli RNAP core enzyme (P0A800 whole entry, chain 4 of 4): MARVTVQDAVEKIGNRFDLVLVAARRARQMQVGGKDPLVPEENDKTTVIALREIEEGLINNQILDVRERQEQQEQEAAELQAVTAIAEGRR

B1: fluorescein-labeled E. coli σ^E (natural protein)
chain: MSEQLTDQVLVERVQKGDQKAFNLLVVRYQHKVASLVSRYVPSGDVPDVVQEAFIKAYRALDSFRGDSAFYTWLYRIAVNTAKNYLVAQGRRPPSSDVDAIEAENFESGGALKEISNPENLMLSEELRQIVFRTIESLPEDLRMAITLRELDGLSYEEIAAIMDCPVGTVRSRIFRAREAIDNKVQPLIRR
modifications: fluorescein at residue C165
As for B1, the Kd (in general, the equilibrium constant for the complex coming apart) is approximately 53 nM.
